Laboratory results published in patent publication US20150133367A1 (University of Pennsylvania, published 2015).
Where two headings read alike, the source gives them in different places. Positions of bridges follow the written chain, without caps; N, C: chain ends. Non-standard residues stand in square brackets, D forms with d. No end group written: not given here. alpha,alpha'‑meta‑xylylene = alpha,alpha'-meta-xylylene linker (from a,a'-dibromo-meta-xylene) bridging two cysteines via bis-thioether; Bip = N[C@@H](Cc1ccc(-c2ccccc2)cc1)C(=O)O; 2Nal = N[C@@H](Cc1ccc2ccccc2c1)C(=O)O

Legend:
Experiment in all cases: fluorescence-based enzyme inhibition assay
Calpain-1 [1] = target: Calpain-1
Cathepsin L [2] = target: T1, Cathepsin L (UniProt P07711 114-333)
Cathepsin L [3] = target: T1, Cathepsin L; remark: listed apart in the source
Cathepsin K [4] = target: T2, Cathepsin K (UniProt P43235 115-329)
T2 sequence (looked up): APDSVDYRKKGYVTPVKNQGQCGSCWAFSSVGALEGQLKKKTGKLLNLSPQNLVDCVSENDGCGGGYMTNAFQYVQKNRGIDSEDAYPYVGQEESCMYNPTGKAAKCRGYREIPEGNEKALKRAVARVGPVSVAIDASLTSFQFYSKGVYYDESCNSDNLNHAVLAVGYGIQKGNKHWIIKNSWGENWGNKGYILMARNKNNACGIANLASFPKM

Cathepsin S = Cathepsin S (UniProt P25774 115-331)
Cathepsin L [5] = target: T1, Cathepsin L; remark: listed apart in the source
Calpain-1 [6] = target: T3, Calpain-1
T3 chain 1: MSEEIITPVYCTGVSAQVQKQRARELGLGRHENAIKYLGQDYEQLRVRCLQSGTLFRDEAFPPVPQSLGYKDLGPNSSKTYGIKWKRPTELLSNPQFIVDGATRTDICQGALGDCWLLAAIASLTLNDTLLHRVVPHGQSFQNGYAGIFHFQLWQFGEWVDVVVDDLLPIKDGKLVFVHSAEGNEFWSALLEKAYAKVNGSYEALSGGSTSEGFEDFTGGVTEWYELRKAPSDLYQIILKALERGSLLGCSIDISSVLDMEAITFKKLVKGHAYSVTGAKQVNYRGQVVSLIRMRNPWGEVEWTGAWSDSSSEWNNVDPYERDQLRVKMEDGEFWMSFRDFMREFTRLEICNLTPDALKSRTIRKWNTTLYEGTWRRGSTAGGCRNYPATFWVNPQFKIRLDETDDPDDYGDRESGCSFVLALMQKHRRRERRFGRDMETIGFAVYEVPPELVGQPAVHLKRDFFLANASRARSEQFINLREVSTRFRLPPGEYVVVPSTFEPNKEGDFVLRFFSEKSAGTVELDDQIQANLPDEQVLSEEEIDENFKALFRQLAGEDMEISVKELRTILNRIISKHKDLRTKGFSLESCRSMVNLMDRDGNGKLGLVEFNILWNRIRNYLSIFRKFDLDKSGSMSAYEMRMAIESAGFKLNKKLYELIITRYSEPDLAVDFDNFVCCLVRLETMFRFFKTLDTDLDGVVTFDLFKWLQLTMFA
T3 chain 2: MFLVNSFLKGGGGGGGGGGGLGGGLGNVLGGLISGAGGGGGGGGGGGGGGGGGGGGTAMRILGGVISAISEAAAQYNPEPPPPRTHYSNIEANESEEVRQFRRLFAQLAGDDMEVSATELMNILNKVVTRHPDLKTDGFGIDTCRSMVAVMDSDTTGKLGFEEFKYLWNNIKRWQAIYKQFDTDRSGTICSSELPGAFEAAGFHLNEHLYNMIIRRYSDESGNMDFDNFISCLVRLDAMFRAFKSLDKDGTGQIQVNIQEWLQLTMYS

Cathepsin K [7] = target: T2, Cathepsin K; remark: listed apart in the source

T1 sequence (P07711 114-333 limits assumed): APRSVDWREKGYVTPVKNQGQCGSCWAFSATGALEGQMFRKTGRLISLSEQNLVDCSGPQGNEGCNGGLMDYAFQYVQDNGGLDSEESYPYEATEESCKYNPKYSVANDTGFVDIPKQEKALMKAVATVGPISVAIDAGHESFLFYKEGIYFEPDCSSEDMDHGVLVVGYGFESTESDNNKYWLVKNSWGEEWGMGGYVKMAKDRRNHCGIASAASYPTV
Chain of Cathepsin S (P25774 115-331 limits assumed): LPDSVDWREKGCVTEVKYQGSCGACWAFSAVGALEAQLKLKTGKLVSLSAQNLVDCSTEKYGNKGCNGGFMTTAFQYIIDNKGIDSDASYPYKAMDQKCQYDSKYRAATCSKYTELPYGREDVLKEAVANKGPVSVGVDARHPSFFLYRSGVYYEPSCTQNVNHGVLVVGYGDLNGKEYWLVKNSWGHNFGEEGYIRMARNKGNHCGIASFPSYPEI

B1: IPPK(bip)CELLC (SEQ ID NO:82) (peptide)
peptide: IPPK[Bip]CELLC
modifications: linker 6-10 via alpha,alpha'‑meta‑xylylene
Ki (Calpain-1 [1]): 9.65 µM

B2: SECFRQCMNGF (SEQ ID NO:2) (peptide)
peptide: SECFRQCMNGF
modifications: linker 3-7 via alpha,alpha'‑meta‑xylylene
Ki (Cathepsin L [2]): 84.7 µM

B3: QCEVVCKMTGL (SEQ ID NO:34) (peptide)
peptide: QCEVVCKMTGL
modifications: linker 2-6 via alpha,alpha'‑meta‑xylylene
Ki (Cathepsin L [3]): 46.2 µM | Ki (Cathepsin K [4]): 76.8 µM | Ki (Cathepsin S): 43.5 µM

B4: SCEVVCKPTGL (SEQ ID NO:39) (peptide)
peptide: SCEVVCKPTGL
modifications: linker 2-6 via alpha,alpha'‑meta‑xylylene
Ki (Cathepsin L [3]): 48 µM | Ki (Cathepsin K [4]): > 100 µM | Ki (Cathepsin S): 58.3 µM

B5: IPPK(OBn-Y)CELLC (SEQ ID NO:83) (peptide)
peptide: IPPKXCELLC
modifications: Cys6 and Cys10 (i,i+4) linked by alpha,alpha'-meta-xylylene; residue 5 OBn-Y = O-benzyltyrosine
Ki (Cathepsin L [5]): 16.7 µM | Ki (Calpain-1 [1]): 21.3 µM

B6: SCE(bip)RCVMNG(nap) (SEQ ID NO:9) (peptide)
peptide: SCE[Bip]RCVMNG[2Nal]
modifications: linker 2-6 via alpha,alpha'‑meta‑xylylene
notes: also called compound (IIIa)
Ki (Calpain-1 [6]): 19.8 µM

B7: SCEFRCVMNGF (SEQ ID NO:3) (peptide)
peptide: SCEFRCVMNGF
modifications: linker 2-6 via alpha,alpha'‑meta‑xylylene
Ki (Cathepsin L [2]): 29.4 µM | Ki (Cathepsin K [7]): > 100 µM
